Seven molecules from US20250011422A1 (UNIVERSITY OF FLORIDA RESEARCH FOUNDATION, published 2025) can be followed below.

Read-outs that look alike come from different tables or passages of the source.

Assay [1] addresses T1, recombinant human Siglec-6 human IgG1-Fc fusion protein (human, UniProt O43699 27-347).
T1 construct: range 27-347; The methods describe the in-house construct as the Siglec-6 ectodomain at the C-terminus of the Fc (Fc-Siglec-6); The text uses hS6-Fc, Siglec-6-Fc and Fc-Siglec-6 for the SPR and ELISA antigen without telling the orientations apart; also called hS6-Fc; Fc-hS6; not shown: human IgG1 Fc, aa 99-329
The experiment in a line: SPR, monovalent Fab on Siglec-6-Fc fusion protein. For orientation: In SPR one partner is held on a chip, and binding of the other changes the refractive index at the surface.

A further assay concerns the target human CD33 (Siglec-3) (human, UniProt P20138 18-259, limits assumed). The experiment in a line: ELISA, siglec-Fc fusion protein coated directly, anti-human Fab detection, absorbance 405-570 nm. For orientation: An ELISA detects its analyte on a solid surface through an enzyme-linked reagent.
Assay [2] concerns the target T2, Siglec-9 (Homo sapiens, UniProt Q9Y336).
T2 construct: Fc fusion protein; member of the siglec panel (group m8); also called human Siglec-9-Fc fusion protein
Described as above.

A further assay addresses T3, Siglec-2 (CD22) (Homo sapiens, UniProt P20273).
T3 construct: Fc fusion protein; member of the siglec panel (group m8); also called human Siglec-2-Fc fusion protein
Described as above.

Another assay has as its target T4, Siglec-8 (Homo sapiens, UniProt Q9NYZ4).
T4 construct: Fc fusion protein; member of the siglec panel (group m8); also called human Siglec-8-Fc fusion protein
The assay is described as above.

For assay [3], the target named is T1, recombinant human Siglec-6 human …. The assay is described as follows: SPR, Siglec-6-Fc captured, soluble Fab injected.
Experimental: (§1) Fab kinetics were determined by capturing Siglec-6-Fc (5-10 μg/mL) in HBS-EP+ buffer (Cytiva) and injecting titrated. […] Biacore evaluation software was used to calculate kₒₙ, koff, and Kd.
For assay [4] the target is unchanged. The experiment in a line: SPR, immobilized hS6-Fc, soluble Fab.
Experimental: as §1
Assay [5] has as its target T5, human Siglec-6 on the cell surface (U937, MEC1-002, MEC1-hS6, primary CLL cells) (human, UniProt O43699 27-453).
T5 construct: whole, on cells; Endogenous on U937, MEC1-002 and CLL cells; stably transfected in MEC1-hS6
The assay is described as follows: flow cytometry of whole PBMC with biotinylated JML-1 IgG1, normalised to an isotype control. (A flow cytometer gives signals particle by particle.)
Experimental: (§2) Flow cytometry: Fabs were used to stain cells at a concentration of 2 μg/mL, unless otherwise noted. […] Samples were analyzed on either an Accuri C6 Plus or a LSRII flow cytometer (both from BD Biosciences).

The next assay has as its target T6, Siglec-6 VC28-235-His6 (human, UniProt O43699 28-235).
T6 construct: It was deglycosylated with PNGase F for HDX-MS; also called soluble Siglec-6 (aa 28-235-His6); Siglec-6 ectodomain fragment
The assay is described as follows: SPR, T-biAb immobilised via the Fc domain, soluble Siglec-6 (aa 28-235-His6) injected.

Assay [6] deals with T5, human Siglec-6 on the cell surface …. The experiment in a line: cell-based or functional assay.
In another assay the target is T7, CD3 on human T cells (human, UniProt P07766 23-207).
T7 construct: whole, on cells; CD3 is a complex; also called CD3+ cells
The experiment in a line: flow cytometry titration on primary human T cells, Alexa Fluor 647 anti-human Fc secondary antibody, percent biAb+ cells.

The target of assay [7] is T5, human Siglec-6 on the cell surface …. The assay is described as follows: cell-based or functional assay. The source holds these as a separate data set.
Assay [8] shares this target. The assay is described as follows: flow cytometry titration on MEC1-hS6 cells, apparent Kd; aDART-Fc format, RC-1 clone.
Experimental: (§3) To determine whether T-biAb format affected the affinity to Siglec-6 or CD3 on the cell surface, T-biAbs were titrated and used to stain cells for flow cytometry (FIG. 17a).
as §2
Assay [9] shares this target. The experiment in a line: cell-based or functional assay. The source holds these as a separate data set.
Assay [10] has the same target. The experiment in a line: cell-based or functional assay. This is another data set of the same source.
The target is the same in assay [11]. The assay is described as follows: flow cytometry titration on MEC1-hS6 cells, apparent Kd; scFv-Fc format, JML-1 clone.
Experimental: as §3, §2
The target in assay [12] is T8, rhesus macaque (Macaca mulatta) Siglec-6 Fc fusion protein (human; Macaca mulatta (rhesus macaque), UniProt A0A1D5QH63 16-333).
T8 construct: range 16-333; it is not the assay construct; also called rhesus Siglec-6; macaque Siglec-6; not shown: human IgG1 Fc, aa 99-329
The assay is described as follows: ELISA, siglec-Fc fusion protein coated directly (50 ng), anti-human F(ab')2-HRP detection, absorbance 405-570 nm.

The target in assay [13] is T2, Siglec-9. The description is as above.

T7 sequence (P07766 23-207): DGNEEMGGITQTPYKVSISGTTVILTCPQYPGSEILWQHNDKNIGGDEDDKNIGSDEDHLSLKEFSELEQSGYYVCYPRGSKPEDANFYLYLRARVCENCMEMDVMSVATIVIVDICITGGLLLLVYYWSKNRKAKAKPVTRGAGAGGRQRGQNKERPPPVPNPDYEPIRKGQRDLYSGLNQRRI
T5 sequence (O43699 27-453): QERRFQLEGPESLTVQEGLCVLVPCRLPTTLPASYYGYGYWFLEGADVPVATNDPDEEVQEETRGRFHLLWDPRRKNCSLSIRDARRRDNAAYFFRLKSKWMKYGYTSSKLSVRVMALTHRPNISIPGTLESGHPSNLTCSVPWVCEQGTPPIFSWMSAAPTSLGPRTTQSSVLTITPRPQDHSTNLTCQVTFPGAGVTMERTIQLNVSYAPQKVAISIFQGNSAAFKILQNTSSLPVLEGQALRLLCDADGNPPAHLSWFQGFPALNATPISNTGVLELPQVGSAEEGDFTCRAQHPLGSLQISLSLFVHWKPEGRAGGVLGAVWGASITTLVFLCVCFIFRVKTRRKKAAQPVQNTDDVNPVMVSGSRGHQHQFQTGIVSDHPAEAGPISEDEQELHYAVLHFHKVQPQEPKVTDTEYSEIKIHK
T1 sequence (O43699 27-347 limits assumed): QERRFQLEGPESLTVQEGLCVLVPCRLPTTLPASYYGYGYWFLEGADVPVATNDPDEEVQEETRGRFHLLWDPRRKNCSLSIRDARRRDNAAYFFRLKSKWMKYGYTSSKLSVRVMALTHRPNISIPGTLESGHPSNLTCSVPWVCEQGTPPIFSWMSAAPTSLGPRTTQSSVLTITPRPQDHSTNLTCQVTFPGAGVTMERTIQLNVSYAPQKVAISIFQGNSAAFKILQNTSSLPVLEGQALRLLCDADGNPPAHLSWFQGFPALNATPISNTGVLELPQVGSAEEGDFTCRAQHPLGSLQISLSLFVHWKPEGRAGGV
T6 sequence (O43699 other isoform, or with tags, fused parts or gaps limits assumed): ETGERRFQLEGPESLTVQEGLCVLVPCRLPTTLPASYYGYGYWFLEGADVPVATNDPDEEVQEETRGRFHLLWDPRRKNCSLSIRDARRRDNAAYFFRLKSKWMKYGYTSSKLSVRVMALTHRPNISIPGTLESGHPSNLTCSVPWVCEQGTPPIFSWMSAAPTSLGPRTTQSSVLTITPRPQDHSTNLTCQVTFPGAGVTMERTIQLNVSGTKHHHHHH
T2 sequence (Q9Y336 18-348 limits assumed): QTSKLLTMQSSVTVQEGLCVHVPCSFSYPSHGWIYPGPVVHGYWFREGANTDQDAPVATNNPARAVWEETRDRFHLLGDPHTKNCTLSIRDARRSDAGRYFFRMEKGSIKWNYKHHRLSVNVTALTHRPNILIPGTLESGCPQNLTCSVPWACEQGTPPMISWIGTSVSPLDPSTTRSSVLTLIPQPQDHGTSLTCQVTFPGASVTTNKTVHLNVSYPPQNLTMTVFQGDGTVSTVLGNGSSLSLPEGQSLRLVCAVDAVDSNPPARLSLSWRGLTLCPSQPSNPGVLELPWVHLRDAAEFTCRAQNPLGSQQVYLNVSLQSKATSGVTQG
Sequence of human CD33 (Siglec-3) (P20138 18-259 limits assumed): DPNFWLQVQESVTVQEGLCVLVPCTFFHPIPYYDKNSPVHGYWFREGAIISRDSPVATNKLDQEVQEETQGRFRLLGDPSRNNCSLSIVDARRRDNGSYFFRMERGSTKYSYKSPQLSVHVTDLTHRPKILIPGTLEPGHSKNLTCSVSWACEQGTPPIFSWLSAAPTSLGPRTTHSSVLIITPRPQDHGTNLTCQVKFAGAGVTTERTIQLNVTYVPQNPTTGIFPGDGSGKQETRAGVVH
T4 sequence (Q9NYZ4 17-363 limits assumed): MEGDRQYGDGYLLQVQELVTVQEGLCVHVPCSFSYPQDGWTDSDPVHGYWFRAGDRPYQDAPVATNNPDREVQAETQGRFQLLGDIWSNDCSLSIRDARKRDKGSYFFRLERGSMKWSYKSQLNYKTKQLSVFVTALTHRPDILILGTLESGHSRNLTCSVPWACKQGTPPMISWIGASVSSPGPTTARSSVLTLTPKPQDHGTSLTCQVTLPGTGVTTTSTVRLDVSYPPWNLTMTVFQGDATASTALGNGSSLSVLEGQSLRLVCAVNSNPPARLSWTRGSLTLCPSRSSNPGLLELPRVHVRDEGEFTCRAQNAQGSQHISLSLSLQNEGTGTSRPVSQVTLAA
T8 sequence (A0A1D5QH63 entry or part of it): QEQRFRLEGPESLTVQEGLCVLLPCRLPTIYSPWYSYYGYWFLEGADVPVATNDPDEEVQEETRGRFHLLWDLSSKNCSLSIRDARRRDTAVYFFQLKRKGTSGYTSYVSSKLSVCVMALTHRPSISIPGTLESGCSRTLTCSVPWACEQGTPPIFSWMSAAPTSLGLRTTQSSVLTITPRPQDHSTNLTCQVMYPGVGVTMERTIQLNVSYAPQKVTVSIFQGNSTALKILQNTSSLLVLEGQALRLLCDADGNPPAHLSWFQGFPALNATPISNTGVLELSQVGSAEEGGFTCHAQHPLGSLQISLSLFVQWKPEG
Experimental for CD3 on human T cells: as §3, §2
Experimental for Siglec-6 VC28-235-His6: as §1

B1: ARN-1 Fab (Fab, V domains shown)
VH: EVQLVQSGGGVVQPGRSLTLSCAAFGFTFSTYTMHWVRQAPGKGLEWVAVISYDEGFKYYADSVKGRFTISRDISKNTLYLQMNSLRTEDTAVYYCAREASAFDIWGQGTMVTVSS
VL: SYVLTQPPLVSVSPGQTARITCSGENWGQKYASWYQQKPGQSPMLIIYEDTKRPSEIPERFSGSNSGSTVTLTISGTQPMDEADYYCQAWDDSTGGVFGTGTKVTVL
notes: Human Fab from a naive human Fab library
Regarding B1, the Kd in [1] was determined as 2.63 nM. Further, the off-rate (koff) (usually a measure of how fast the partners let go of each other) in [1] stood at 0.000268 s⁻¹. The kon (usually a measure of how fast the partners come together) in assay [1] stood at 100000 M⁻¹ s⁻¹. The binding result in the assay with human CD33 (Siglec-3), with Siglec-9 [2], in the assay with Siglec-2 (CD22) and in the assay with Siglec-8 was “no binding (tested: 75 ng Fab per well)” in each case.

B2: RC-2 Fab (Fab, V domains shown)
VH: EVQLLESGGGVVQPGRSLRLSCAASGFTFSSYGMHWVRQAPGKGLEWVAVISYDGSNKHYADSVKGRFTISRDNSKNTLYLQMNSLRAEDTAVYYCARGGQTIDIWGQGTMVTVSS
VL: not shown
notes: Human Fab (kappa), expressed in E. coli
On to B2, for which, in assay [3], the T1/2 was found to be 27 min. For the same molecule, the Kd in assay [4] is 2.76 nM.

B3: JML-1 biotinylated IgG1 (antibody, V domains shown)
VH: KVQLLESGGGLVQPGRSLRLSCAASGFTFDDYGMHWVRQAPGKGLEWVSGISWNSGSIGYADSVKGRFTISRDNSKNTLYLQMNSLRAEDTAVYYCARGGQTIDIWGQGTMVTVSS
VL: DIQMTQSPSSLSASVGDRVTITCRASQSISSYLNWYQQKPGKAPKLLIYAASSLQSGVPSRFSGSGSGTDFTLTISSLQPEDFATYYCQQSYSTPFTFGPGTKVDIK
modifications: Biotinylated IgG1; the biotin sites are not stated and are not carried in the letters.
As for B3, the binding result in assay [5] is listed as “binds”.

B4: V9/RC-1 sDART-Fc (bispecific antibody)
chain 1: DIQMTQSPSSLSASVGDRVTITCRASQDIRNYLNWYQQKPGKAPKLLIYYTSRLESGVPSRFSGSGSGTDYTLTISSLQPEDFATYYCQQGNTLPWTFGQGTKVEIKGGGSGGGGEVQLVESGGGLVQPGRSLRLSCAASGFTFSSYGMHWVRQAPGKGLEWVAVISYDGSNKYYADSVKGRFTISRDNSKNTLYLQMNSLRAEDTAVYYCANYGMDVWGKGTTVTVSSGCPPCPAPEAAGGPSVFLFPPKPKDTLMISRTPEVTCVVVDVSHEDPEVKFNWYVDGVEVHNAKTKPREEQYNSTYRVVSVLTVLHQDWLNGKEYKCKVSNKALGAPIEKTISKAKGQPREPQVCTLPPSRDELTKNQVSLSCAVKGFYPSDIAVEWESNGQPENNYKTTPPVLDSDGSFFLVSKLTVDKSRWQQGNVFSCSVMHEALHNRFTQKSLSLSPGA
chain 2: not shown
notes: Two-chain symmetric DART-Fc
For B4, in the assay with Siglec-6 VC28-235-His6, the Kd was 0.07 nM, the koff was 0.0003 s⁻¹ and the kon is 4.14e+06 M⁻¹ s⁻¹. Moreover, in assay [6], the “EC50, lysis of MEC1-hS6 cells by human T cells (E:T 1:1, luciferase)” value is 0.00069 nM. Also, the EC50 (read off the curve) (as a rule, the concentration needed to bring the measured effect to its halfway point) with CD3 on human T cells was approximately 0.3 nM.

B5: RC-1/V9 aDART-Fc (bispecific antibody)
chain 1: not shown
chain 2: DIQMTQSPSSLSASVGDRVTITCRASQDIRNYLNWYQQKPGKAPKLLIYYTSRLESGVPSRFSGSGSGTDYTLTISSLQPEDFATYYCQQGNTLPWTFGQGTKVEIKGGGGSGGGGEVQLVESGGGLVQPGRSLRLSCAASGFTFSSYGMHWVRQAPGKGLEWVAVISYDGSNKYYADSVKGRFTISRDNSKNTLYLQMNSLRAEDTAVYYCANYGMDVWGKGTTVTVSSASTKGKVAACKEKVAALKEKVAALKEKVAALKE
chain 3: DKTHTCPPCPAPEAAGGPSVFLFPPKPKDTLMISRTPEVTCVVVDVSHEDPEVKFNWYVDGVEVHNAKTKPREEQYNSTYRVVSVLTVLHQDWLNGKEYKCKVSNKALGAPIEKTISKAKGQPREPQVCTLPPSRDELTKNQVSLSCAVKGFYPSDIAVEWESNGQPENNYKTTPPVLDSDGSFFLVSKLTVDKSRWQQGNVFSCSVMHEALHNRFTQKSLSLSPGA
notes: Three-chain asymmetric DART-Fc; Chain 1 is RC-1vk-G3SG4-V9vh-ASTK-E-coil-G3-Fc knobs, chain 2 is V9vk-G4SG4-RC-1vh-ASTK-K-coil, and chain 3 is Fc holes; also called Siglec-6xCD3 T-biAb in aDART-Fc format
On to B5, for which, in [7], the “EC50 (read off the curve), NFAT reporter activation with MEC1-002 cells” value is approximately 0.04 nM. Moreover, the Kd in assay [8] stood at 0.79 nM. Further, in the assay with Siglec-6 VC28-235-His6, the Kd was 0.15 nM, the koff was 0.00045 s⁻¹ and the kon came out at 2.96e+06 M⁻¹ s⁻¹. In addition, the “EC50 (read off the curve)” value with CD3 on human T cells is approximately 0.1 nM. In [9], the “directed T cell lysis of CLL cell lines, EC50” value worked out at 0.00012 nM; the “fold increase in lysis potency compared to RC-1/V9 scFv-Fc” value came to 25 fold; the “fold lower lysis EC50 than CD19/V9 scFv-Fc (MEC1-002, E:T 1:30, 48 h)” value was approximately 3 fold; the “fold lower lysis EC50 than RC-1/V9 scFv-Fc (MEC1-002, E:T 1:30, 48 h)” value was more than 10 fold. Also, in assay [9], the “specific lysis of MEC1-002 cells at E:T 1:30, EC50” value was 0.0011 nM and the “specific lysis of primary CLL cells by autologous T cells, day 11, median” value was 24.9%.

B6: JML-1/V9 scFv-Fc (bispecific antibody)
chain 1: not shown
chain 2: EVQLVESGGGLVQPGGSLRLSCAASGYSFTGYTMNWVRQAPGKGLEWVALINPYKGVSTYNQKFKDRFTISVDKSKNTAYLQMNSLRAEDTAVYYCARSGYYGDSDWYFDVWGQGTLVTVSSGGGGSGGGGSGGGGSDIQMTQSPSSLSASVGDRVTITCRASQDIRNYLNWYQQKPGKAPKLLIYYTSRLESGVPSRFSGSGSGTDYTLTISSLQPEDFATYYCQQGNTLPWTFGQGTKVEIKEPKSSDKTHTCPPCPAPELLGGPSVFLFPPKPKDTLMISRTPEVTCVVVDVSHEDPEVKFNWYVDGVEVHNAKTKPREEQYASTYRVVSVLTVLHQDWLNGKEYKCKVSNKALPAPIEKTISKAKGQPREPQVCTLPPSRDELTKNQVSLSCAVKGFYPSDIAVEWESNGQPENNYKTTPPVLDSDGSFFLVSKLTVDKSRWQQGNVFSCSVMHEALHNHYTQKSLSLSPGA
notes: Knobs-into-holes heterodimer of the JML-1 scFv-Fc knob arm and the shared anti-CD3 V9 scFv-Fc hole arm; Both arms carry N297A; also called JML-1 clone T-biAb
B6: in assay [10], the “EC50 (read off the curve), NFAT reporter activation with MEC1-002 cells” value is approximately 0.08 nM. In assay [11], the Kd was found to be 0.61 nM. The “EC50 (read off the curve)” value with CD3 on human T cells was approximately 0.07 nM. Besides, in assay [9], the “specific lysis of MEC1-hS6 by healthy donor T cells, EC50” value stood at 0.0024 nM and the “specific lysis of primary CLL cells by autologous T cells, day 11, median” value amounted to 8.8%.

B7: RC-1 Fab (Fab, V domains shown)
VH: EVQLVESGGGLVQPGRSLRLSCAASGFTFSSYGMHWVRQAPGKGLEWVAVISYDGSNKYYADSVKGRFTISRDNSKNTLYLQMNSLRAEDTAVYYCANYGMDVWGKGTTVTVSS
VL: not shown
notes: Human Fab (kappa) from the post-alloHSCT phage library, expressed in E. coli
In the case of B7, the binding result (in assay [12]; with Siglec-9 [13]; in the assay with human CD33 (Siglec-3); with Siglec-2 (CD22); in the assay with Siglec-8) was “no binding (tested: 75 ng Fab per well)” throughout. Further, in [3], the T1/2 was 37 min. Further, the Kd in assay [4] worked out at 0.49 nM.
